Assay results from patent publication US20150018528A1 (Novo Nordisk, published 2015).

T1: Type II PGLYRP4 on HEK293-6E cells (human, UniProt Q96LB8 18-373)
T1 construct: also called hPGLYRP4; PGRP-1b
T1 sequence: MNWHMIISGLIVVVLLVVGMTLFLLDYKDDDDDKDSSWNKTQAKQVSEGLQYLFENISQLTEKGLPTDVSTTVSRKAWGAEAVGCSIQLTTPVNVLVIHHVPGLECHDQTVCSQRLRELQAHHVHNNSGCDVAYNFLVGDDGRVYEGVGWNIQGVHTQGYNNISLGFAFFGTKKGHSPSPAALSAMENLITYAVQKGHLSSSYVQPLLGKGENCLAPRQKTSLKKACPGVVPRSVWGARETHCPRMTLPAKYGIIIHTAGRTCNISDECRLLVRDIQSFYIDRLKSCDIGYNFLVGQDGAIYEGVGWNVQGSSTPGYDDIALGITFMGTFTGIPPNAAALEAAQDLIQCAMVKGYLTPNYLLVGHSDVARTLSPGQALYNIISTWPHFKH

T2: Type II PGLYRP2 on HEK293-6E cells (human, UniProt Q96PD5 22-576)
T2 construct: also called hPGLYRP2; PGRP-L
T2 sequence: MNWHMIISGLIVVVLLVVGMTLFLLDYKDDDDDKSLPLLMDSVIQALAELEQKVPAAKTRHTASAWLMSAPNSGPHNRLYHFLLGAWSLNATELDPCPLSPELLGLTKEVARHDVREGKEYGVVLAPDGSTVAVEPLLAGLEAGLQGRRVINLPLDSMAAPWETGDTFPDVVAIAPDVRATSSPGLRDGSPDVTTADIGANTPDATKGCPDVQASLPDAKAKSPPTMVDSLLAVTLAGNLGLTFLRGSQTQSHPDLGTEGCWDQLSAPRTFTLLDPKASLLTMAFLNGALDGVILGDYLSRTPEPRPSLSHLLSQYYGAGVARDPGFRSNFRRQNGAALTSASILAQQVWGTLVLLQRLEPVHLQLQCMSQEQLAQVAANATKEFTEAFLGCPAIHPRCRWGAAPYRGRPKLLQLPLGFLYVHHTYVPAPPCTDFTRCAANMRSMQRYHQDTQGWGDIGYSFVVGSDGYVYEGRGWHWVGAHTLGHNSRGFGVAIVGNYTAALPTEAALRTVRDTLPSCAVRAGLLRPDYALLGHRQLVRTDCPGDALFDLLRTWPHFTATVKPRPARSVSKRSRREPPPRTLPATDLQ

T3: recombinant human PGLYRP1 generated in-house (SEQ ID NO: 1) (human, UniProt O75594 22-196)
T3 sequence: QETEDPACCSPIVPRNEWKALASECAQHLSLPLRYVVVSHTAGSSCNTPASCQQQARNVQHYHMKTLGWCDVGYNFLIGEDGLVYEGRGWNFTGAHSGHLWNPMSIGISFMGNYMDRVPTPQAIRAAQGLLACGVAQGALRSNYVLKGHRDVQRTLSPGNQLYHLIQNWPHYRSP

T4: endogenous human PGLYRP1 (neutrophils; RA synovial fluid) (human, UniProt O75594 22-196)
T4 construct: also called PGRP-S; neutrophil-derived PGLYRP1
T4 sequence (looked up): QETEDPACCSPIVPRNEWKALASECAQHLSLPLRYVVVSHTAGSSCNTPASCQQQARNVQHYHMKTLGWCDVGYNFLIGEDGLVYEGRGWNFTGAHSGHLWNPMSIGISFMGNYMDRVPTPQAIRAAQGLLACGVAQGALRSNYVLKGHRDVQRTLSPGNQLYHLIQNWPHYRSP

T5: Type II muPGLYRP1 on HEK293-6E cells (mouse, UniProt O88593 19-182)
T5 construct: whole, on cells; also called mouse PGLYRP1; not shown: Type II membrane anchor; construct is not described in the text
T5 sequence (looked up): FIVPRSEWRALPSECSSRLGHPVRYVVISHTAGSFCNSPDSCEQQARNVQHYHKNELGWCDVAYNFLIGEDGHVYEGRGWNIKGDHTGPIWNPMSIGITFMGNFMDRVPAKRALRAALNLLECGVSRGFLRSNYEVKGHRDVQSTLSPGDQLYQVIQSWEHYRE


Columns and labels:
[1] = target: T1, Type II PGLYRP4 on HEK293-6E cells; test: flow cytometry on transfected HEK293-6E cells
Experimental: (§1) 51.2090KZ, BD Biosciences, San Jose Calif., USA) for intracellular staining or 2% FBS/PBS for surface staining: cell pellets were resuspended in a 96-well round bottom plate (to begin with: 160,000 cells/well) with 200 μl cytofix/perm buffer for 15 minutes at 22 C., washed twice with 200 μl 1× PermWash Buffer (diluted 10× in DiH20), stained with 50 μl probe diluted to 5 µg/ml in 1× PermWash buffer, incubated for 1 hour at 4 C., cells were then washed with 200 μl 1× PermWash Buffer, a secondary probe was added in 50 μl 1× PermWash buffer, cells were incubated at 4 C. for 30 minutes, washed twice with 200 μl 1× PermWash Buffer, pellets were resuspended in 50 μl 1:1 PBS diluted CytoFix (BD:554655, San Jose, Calif.), incubated for 5 minutes at 22 C., 150 μl PBS/2% FBS was added, centrifuged for 5 minutes at 300 g, washed 1× with 200 μl PBS/2% FBS and resuspended in 100 μl PBS/2% FBS. Binding was analysed using FACS on LSRII (BD, San Jose Calif., USA).

[2] = target: T2, Type II PGLYRP2 on HEK293-6E cells; test: flow cytometry on transfected HEK293-6E cells
Experimental: as §1

[3] = target: T3, recombinant human PGLYRP1 generated …; test: direct ELISA on PGLYRP1 protein (primary screening of hybridoma supernatants)
[4] = target: T4, endogenous human PGLYRP1 (neutrophils; …); test: crosslinking, immunoprecipitation and LC/MS/MS from human neutrophils; CD83-Fc as control bait
[5] = target: T5, Type II muPGLYRP1 on HEK293-6E cells; test: flow cytometry on transfected HEK293-6E cells
Experimental: as §1

Row | ratio of MFI of probe staining over negative control staining [1] [ratio] | ratio of MFI of probe staining over negative control staining [2] [ratio] | binding result [3] | Binder | other results
1 | < 1 | < 1 | – | huTREML2.Fc dimer (C0247) (Fc fusion, Entry may hold the hCD33 leader; code tied by the name of the construct only; also called huTremL2.Fc (C0247); hTREML2-Fc6mut dimer) GPSADSVYTKVRLLEGETLSVQCSYKGYKNRVEGKVWCKIRKKKCEPGFARVWVKGPRYLLQDDAQAKVVNITMVALKLQDSGRYWCMRNTSGILYPLMGFQLDVSPAPQTERNIPFTHLDNILKSGTVTTGQAPTSGPDAPFTTGVMVFTPGLITLPRLLASTRPASKTGYSFTATSTTSQGPRRTMGSQTVTASPSNARDSSAGPESISTKSGDLSTRSPTTGLCLTSRSLLNRLPSMPSIRHQDVYSGTEPKSSDKTHTCPPCPAPEAEGAPSVFLFPPKPKDTLMISRTPEVTCVVVDVSHEDPEVKFNWYVDGVEVHNAKTKPREEQYNSTYRVVSVLTVLHQDWLNGKEYKCKVSNKALPSSIEKTISKAKGQPREPQVYTLPPSREEMTKNQVSLTCLVKGFYPSDIAVEWESNGQPENNYKTTPPVLDSDGSFFLYSKLTVDKSRWQQGNVFSCSVMHEALHNHYTQKSLSLSPGK | –
2 | – | – | binds | M-hPGRPS-2F7 (antibody, V domains shown, Tested as hybridoma supernatant) VH: EVQLQQSGPEVVKPGTSVKMSCKASGYTFTNYVMHWVRQKPGQGLEWVGWINPFNDGTNYNENFKNKATLTSDKSSSTAYMELSSLTSEDSAVYYCARSGFITTLIEDYWGQGTTLTVSS VL: NIVMTQSPKYMSMSVGERVTLTCKASESVGSFVSWYQQKADQSPNLLIYGASNRYTGVPDRFTGSGSARDFTLTISSVQAKDLAEYYCGQYYTHPTFGAGTKLELKR | –
3 | – | – | – | hCD83-G4Sx3-hCD83/Fc6mut (CD83-Fc, hCD83 tetramer) (Fc fusion, also called control construct (CD83); control protein) TPEVKVACSEDVDLPCTAPWDPQVPYTVSWVKLLEGGEERMETPQEDHLRGQHYHQKGQNGSFDAPNERPYSLKIRNTTSCNSGTYRCTLQDPDGQRNLSGKVILRVTGCPAQRKEETFKKYRAEGTGGGGSGGGGSGGGGSTPEVKVACSEDVDLPCTAPWDPQVPYTVSWVKLLEGGEERMETPQEDHLRGQHYHQKGQNGSFDAPNERPYSLKIRNTTSCNSGTYRCTLQDPDGQRNLSGKVILRVTGCPAQRKEETFKKYRAEGALAGTEPKSSDKTHTCPPCPAPEAEGAPSVFLFPPKPKDTLMISRTPEVTCVVVDVSHEDPEVKFNWYVDGVEVHNAKTKPREEQYNSTYRVVSVLTVLHQDWLNGKEYKCKVSNKALPSSIEKTISKAKGQPREPQVYTLPPSREEMTKNQVSLTCLVKGFYPSDIAVEWESNGQPENNYKTTPPVLDSDGSFFLYSKLTVDKSRWQQGNVFSCSVMHEALHNHYTQKSLSLSPGK | binding result [4]: no binding (tested: 100 µg/ml)
4 | – | – | binds | M-hPGRPS-2F5 (antibody, V domains shown, Tested as hybridoma supernatant) VH: EVQLVESGGGLVKPGGSLKLSCAASGFSFSDYYMYWVRQTPEKRLEWVAAISDDSTYTYYPDSVKGRFTISRDNAKNNLYLQMSSLKSEDTAMYYCARGGYGNLYAMDYWGQGTSVTVSS VL: QIVLTQSPAIMSASLGERVTMTCTASSSVSSSYLHWYQQKPGSSPKLWIYSTSNLASGVPARFSGSGSGTSYSLTISSMEAEDAATYYCHQYHRSPFTFGSGTKLEIKR | –
5 | < 1 | < 1 | – | huTREM2.Fc dimer (C0248) (Fc fusion, Entry may hold the hCD33 leader; code tied by the name of the construct only; also called huTrem2.Fc (C0248); hTREM2-Fc6mut dimer) HNTTVFQGVAGQSLQVSCPYDSMKHWGRRKAWCRQLGEKGPCQRVVSTHNLWLLSFLRRWNGSTAITDDTLGGTLTITLRNLQPHDAGLYQCQSLHGSEADTLRKVLVEVLADPLDHRDAGDLWFPGESESFEDAHVEHSISRSLLEGEIPFPPTSGTEPKSSDKTHTCPPCPAPEAEGAPSVFLFPPKPKDTLMISRTPEVTCVVVDVSHEDPEVKFNWYVDGVEVHNAKTKPREEQYNSTYRVVSVLTVLHQDWLNGKEYKCKVSNKALPSSIEKTISKAKGQPREPQVYTLPPSREEMTKNQVSLTCLVKGFYPSDIAVEWESNGQPENNYKTTPPVLDSDGSFFLYSKLTVDKSRWQQGNVFSCSVMHEALHNHYTQKSLSLSPGK | –
6 | < 1 | < 1 | – | huTREML1.Fc dimer (C0246) (Fc fusion, Entry may hold the hCD33 leader; code tied by the name of the construct only; also called huTremL1.Fc (C0246); hTREML1-Fc6mut dimer) QGIVGSLPEVLQAPVGSSILVQCHYRLQDVKAQKVWCRFLPEGCQPLVSSAVDRRAPAGRRTFLTDLGGGLLQVEMVTLQEEDAGEYGCMVDGARGPQILHRVSLNILPPEEEEETHKIGSLAENAFSDPAGSANPLEPSQDEKSIPGTEPKSSDKTHTCPPCPAPEAEGAPSVFLFPPKPKDTLMISRTPEVTCVVVDVSHEDPEVKFNWYVDGVEVHNAKTKPREEQYNSTYRVVSVLTVLHQDWLNGKEYKCKVSNKALPSSIEKTISKAKGQPREPQVYTLPPSREEMTKNQVSLTCLVKGFYPSDIAVEWESNGQPENNYKTTPPVLDSDGSFFLYSKLTVDKSRWQQGNVFSCSVMHEALHNHYTQKSLSLSPGK | ratio of MFI of probe staining over negative control staining [5]: < 1 ratio
